# pKd: −log10 of the molar value.
# Columns and labels:
# [1] = target: integrin β3 cytoplasmic tail (UniProt P05106); assay: ITC
# [2] = target: skelemin tandem IgC2 domains 4 and 5 with the interconnecting linker, C1354S (mouse); assay: ITC
# Chain of integrin β3 cytoplasmic tail (P05106 742-788): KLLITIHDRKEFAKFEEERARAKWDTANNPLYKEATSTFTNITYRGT
substance,measurement,setting,value
integrin αIIb cytoplasmic tail peptide (starting from W988),pKd,[1],5.24
same,dH,[2],-0.382 kcal/mol
same,stoichiometry N,[2],1.26

# From article PMC4222533
